Series [1] has as its target T1, TaBZR2 (Triticum aestivum (ZM1860), UniProt A0A3B6FJ07 1-354).
T1 sequence: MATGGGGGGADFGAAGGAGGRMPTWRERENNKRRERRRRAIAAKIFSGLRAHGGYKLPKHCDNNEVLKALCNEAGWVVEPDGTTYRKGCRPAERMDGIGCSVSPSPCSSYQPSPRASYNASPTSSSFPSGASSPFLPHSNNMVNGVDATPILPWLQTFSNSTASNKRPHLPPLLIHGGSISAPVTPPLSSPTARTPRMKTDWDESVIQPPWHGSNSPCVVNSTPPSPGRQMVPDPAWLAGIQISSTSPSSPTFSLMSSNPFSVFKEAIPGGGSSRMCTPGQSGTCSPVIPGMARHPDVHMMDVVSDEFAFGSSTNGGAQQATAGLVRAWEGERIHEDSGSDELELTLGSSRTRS
Briefly: EMSA. (In general: In EMSA bound probe runs differently from free probe, usually more slowly.)

The target of series [2] is T1, TaBZR2. In words: competition.
The target of series [3] is T1, TaBZR2. In words: competition. This is another data set of the same source.

B1: TaHSP21 promoter E-box probe (WT) (dsDNA)
DNA 1: AAGCACATATGTGTTGAAACAAGTGCAAAATGACAAGTGAGGGC
DNA 2: GCCCTCACTTGTCATTTTGCACTTGTTTCAACACATATGTGCTT
On to B1, for which the binding result in series [1] was “binds”.

B2: TaHSFb2a promoter mutated E-box probe (dsDNA)
DNA 1: CCGTTTCTAGAAACCTCGCTGTACAGCCGACTAGAAAGGATCG
DNA 2: CGATCCTTTCTAGTCGGCTGTACAGCGAGGTTTCTAGAAACGG
As to B2, the binding result in series [2] was “no binding”.

B3: TaHSP21 promoter mutated E-box probe (dsDNA)
DNA 1: AAGCATGCGCATGTTGAAATGGACACAAAATGATGGACAAGGGC
DNA 2: GCCCTTGTCCATCATTTTGTGTCCATTTCAACATGCGCATGCTT
Turning to B3, in series [3], the binding result is on record as “no binding”.

B4: TaHSFb2a promoter E-box probe (WT) (dsDNA)
DNA 1: CCGTTTCTAGAAACCTCGCCACGTGGCCGACTAGAAAGGATCG
DNA 2: CGATCCTTTCTAGTCGGCCACGTGGCGAGGTTTCTAGAAACGG
For the molecule B4, the binding result in series [1] is given as “binds”.
